Assay results reported in patent US20230220056A1 (KOOKMIN UNIVERSITY INDUSTRY ACADEMY COOPERATION FOUNDATION, published 2023).

Columns and labels:
recombinant human GRP94 [1] = molecular target: T1, recombinant human GRP94 (human, UniProt P14625 22-799, limits assumed); assay: ELISA, 100 ng rhGRP94 coated per well, IgG 0-500 nM; no unit beside the value, concentration axis in nM and the dotted drop line meets it at about 0.5
T1 construct: also called rhGRP94; glucose-regulated protein 94
Method: (§1) Each well of 96-well plates was coated with 0.1 μg of recombinant human GRP94 (rhGRP94), blocked with 3% (w/v) bovine serum albumin (BSA) in phosphate buffered saline (PBS) for 2 hours at 37° C., and incubated with 100 μL of GRP94 targeting IgG (20 μg/mL) for 2 hours at 37° C. The plates were washed thrice with 0.05% PBS-T, and 100 μL of a 500:1 dilution of the secondary antibody anti-human Fc Ab (Sigma-Aldrich) was added to each well. Incubation at 37° C. for 1 hour was followed by three rounds of washing with 0.05% PBS-T. Then, 100 μL of 3,3′,5,5′-tetramethylbenzidine (1-step ultra TMB) substrate solution was added to each well. Finally, optical densities were measured at 450 nm using a microplate reader (Synergy H1, BioTek).
(§2) In this regard, each well of 96-well plates was coated with 100 ng of rhGRP94 and blocked with 3% (w/v) bovine serum albumin (BSA) in PBS at 37° C. for 2 hours. Next, the plates were incubated with a concentration gradient of 0 nM to 500 nM of each clone for the GRP94 IgGs at 37° C. for 2 hours. The use of a secondary antibody and the measurement of optical density were conducted as described for the ELISA.

recombinant human GRP94 [2] = molecular target: T1, recombinant human GRP94; assay: ELISA, 100 ng rhGRP94 coated per well, IgG 0-500 nM; no unit beside the value, concentration axis in nM and the dotted drop line meets it at about 1.2
Method: as §1, §2

recombinant human GRP94 [3] = molecular target: T1, recombinant human GRP94; assay: ELISA, 100 ng rhGRP94 coated per well, IgG 0-500 nM; no unit beside the value, concentration axis in nM and the dotted drop line meets it at about 0.1
Method: as §1, §2

recombinant human GRP94 [4] = molecular target: T1, recombinant human GRP94; assay: ELISA, 100 ng rhGRP94 coated per well, IgG 0-500 nM; no unit beside the value, concentration axis in nM and the dotted drop line meets it at about 0.15
Method: as §1, §2

T1 sequence (P14625 22-799 limits assumed): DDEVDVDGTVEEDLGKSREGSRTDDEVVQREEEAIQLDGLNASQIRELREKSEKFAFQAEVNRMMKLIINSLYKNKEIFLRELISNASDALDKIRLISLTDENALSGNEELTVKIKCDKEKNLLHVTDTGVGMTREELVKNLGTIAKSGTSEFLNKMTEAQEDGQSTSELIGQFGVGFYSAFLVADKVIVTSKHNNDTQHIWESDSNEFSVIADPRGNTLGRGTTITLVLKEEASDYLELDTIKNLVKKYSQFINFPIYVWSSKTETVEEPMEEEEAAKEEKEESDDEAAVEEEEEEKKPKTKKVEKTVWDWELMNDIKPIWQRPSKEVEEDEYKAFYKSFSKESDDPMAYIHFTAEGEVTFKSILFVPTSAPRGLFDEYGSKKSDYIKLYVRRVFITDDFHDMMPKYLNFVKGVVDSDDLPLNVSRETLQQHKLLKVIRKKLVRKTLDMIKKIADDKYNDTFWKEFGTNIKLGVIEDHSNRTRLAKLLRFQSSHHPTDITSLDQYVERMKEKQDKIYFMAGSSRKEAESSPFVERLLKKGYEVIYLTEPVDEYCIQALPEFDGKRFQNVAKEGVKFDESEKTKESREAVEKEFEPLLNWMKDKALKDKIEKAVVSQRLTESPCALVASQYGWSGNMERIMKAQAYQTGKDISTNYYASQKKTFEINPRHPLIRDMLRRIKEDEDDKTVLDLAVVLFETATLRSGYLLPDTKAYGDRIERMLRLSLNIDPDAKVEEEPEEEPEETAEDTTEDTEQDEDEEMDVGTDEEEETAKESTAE

B1: anti-GRP94 human IgG antibody B5 (antibody, V domains shown)
VH: EVQLLESGGGLVQPGGSLRLSCAASGFTFSNYYMSWVRQAPGKGLEWVSGIYPNSGSTYYADSVKGRFTISRDNSKNTLYLQMNSLRAEDTAVYYCARDPLHPARFPFDYWGQGTLVTVSS
VL: QSVLTQPPSASGTPGQRVTISCTGSSSNIGNNAVSWYQQLPGTAPKLLIYADSHRPSGVPDRFSGSKSGTSASLAISGLRSEDEADYYCGAWDASLNAYVFGGGTKLTVL
notes: Tested as whole human IgG made from the selected scFv's VH and VL genes in pcDNA3.1 / Expi293 cells; also called GRP94 IgG B5
Q: B1 was tested. Which Kd (recombinant human GRP94 [1]) did it give?
A: 0.467 nM

B2: anti-GRP94 human IgG antibody 3G7 (antibody, V domains shown)
VH: EVQLLESGGGLVQPGGSLRLSCAASGFTFSNYSMSWVRQAPGKGLEWVSGIYYGSGNKYYADSVKGRFTISRDNSKNTLYLQMNSLRAEDTAVYYCAKNLASFDYWGQGTLVTVSS
VL: QSVLTQPPSASGTPGQRVTISCSGSSSNIGSNSVNWYQQLPGTAPKLLIYSNSHRPSGVPDRFSGSKSGTSASLAISGLRSEDEADYYCGTWDSSLSGYVFGGGTKLTVL
notes: Tested as whole human IgG; also called GRP94 IgG 3G7
Q: How did the Kd (recombinant human GRP94 [2]) turn out when B2 was run?
A: 1.21 nM

B3: anti-GRP94 human IgG antibody E5 (antibody, V domains shown)
VH: EVQLLESGGGLVQPGGSLRLSCAASGFTFSNYAMSWVRQAPGKGLEWVSGISSSSGSTYYADSVKGRFTTSRDNSKNTLYLQMNSLRAEDTAVYYCARDRHPFSPNWFDYWGQGTLVTVSS
VL: QSVLTQPPSASGTPGQRVTISCSGSPSNIGSNTVTWYQQLPGTAPKLLIYADSHRPSGVPDRFSGSKSGTSASLAISGLRSEDEADYYCASWDDSLNGYVFGGGTKLTVL
notes: Tested as whole human IgG; also called GRP94 IgG E5
Q: How did the Kd (recombinant human GRP94 [3]) turn out when B3 was run?
A: 0.0997 nM

B4: anti-GRP94 human IgG antibody 2H5 (antibody, V domains shown)
VH: EVQLLESGGGLVQPGGSLRLSCAASGFTFSGYAMSWVRQAPGKGLEWVSAISHGGSSKYYADSVKGRFTISRDNSKNTLYLQMNSLRAEDTAVYYCAKDLLSPLQSIGSYDDAMDVWGQGTLVTVSS
VL: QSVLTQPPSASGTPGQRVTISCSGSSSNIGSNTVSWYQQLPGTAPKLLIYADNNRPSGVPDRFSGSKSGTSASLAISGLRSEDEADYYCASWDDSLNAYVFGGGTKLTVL
notes: Tested as whole human IgG; also called GRP94 IgG 2H5
Q: With B4 as the binder, how does the Kd (recombinant human GRP94 [4]) read?
A: 0.142 nM
